Data set [1] concerns the target Aldehyde dehydrogenase AldB (PSPTO_2673) (Pseudomonas syringae pv. tomato strain DC3000). Put plainly: SEC; His-tagged protein on a Superdex-200 26/60 column in 25 mM Hepes (pH 7.5), 100 mM NaCl; column calibrated with molecular weight standards. For orientation: Size exclusion chromatography separates by hydrodynamic size, large species first.
The target in data set [2] is T1, AldA (Pseudomonas syringae group genomosp. 3, UniProt Q88BC5).
T1 construct: gene PSPTO_0092; full-length, N-terminal hexahistidine tag (pET28a, NdeI/XhoI), E. coli BL21(DE3); tetramer; catalytic Cys302
Put plainly: X-ray crystal structure of complex. The format is binding. The settings on record: pH 8.5.

For data set [3], the system named is NC(=O)c1ccc[n+]([C@@H]2O[C@H](COP(=O)(O)OP(=O)(O)OC[C@H]3O[C@@H](n4cnc5c(N)ncnc54)[C@H](O)[C@@H]3O)[C@@H](O)[C@H]2O)c1. Put plainly: purified protein. To be noted: 1.0 mM IAAld, 100 mM Tris-HCl pH 8.0, 100 mM KCl, 25 °C, NAD+ varied, varied: cofactor.
In data set [4] the test system is O=CCc1c[nH]c2ccccc12. Put plainly: purified protein. To be noted: 1.0 mM NAD+, 100 mM Tris-HCl pH 8.0, 100 mM KCl, 25 °C, IAAld varied 0.05-2.5 mM.
Data set [5] deals with Aldehyde dehydrogenase AldC (PSPTO_3644) (Pseudomonas syringae pv. tomato strain DC3000). Put plainly: SEC; His-tagged protein on a Superdex-200 26/60 column in 25 mM Hepes (pH 7.5), 100 mM NaCl; column calibrated with molecular weight standards.
Data set [6] relates to NC(=O)c1ccc[n+]([C@@H]2O[C@H](COP(=O)(O)OP(=O)(O)OC[C@H]3O[C@@H](n4cnc5c(N)ncnc54)[C@H](OP(=O)(O)O)[C@@H]3O)[C@@H](O)[C@H]2O)c1. Put plainly: purified protein. To be noted: 1.0 mM IAAld, 100 mM Tris-HCl pH 8.0, 100 mM KCl, 25 °C, NADP+ varied, varied: cofactor.
Data set [7] concerns the molecule itself. Put plainly: SEC; His-tagged protein on a Superdex-200 26/60 column in 25 mM Hepes (pH 7.5), 100 mM NaCl; column calibrated with molecular weight standards.

By stoichiometry N is commonly meant the number of molecules, sites or subunits per partner or assembly. Molecule “Aldehyde dehydrogenase AldB (PSPTO_2673) (enzyme)” registered a stoichiometry N in data set [1] of 4.

As to `O=C(O)Cc1c[nH]c2ccccc12` [IAA], the “X-ray crystal structure of complex” value in data set [2] (5 mM NAD+ and 5 mM IAA, dead-end ternary complex, 1.93 Å, substrate site near Cys302) is “AldA (5IUU); AldA•NAD^+ (5IUV); and AldA•NAD^+•IAA (5IUW)”.

As usually defined, the Km is the substrate concentration at which the rate is half of its maximum. The term kcat denotes the maximal rate divided by the concentration of active sites. One may read the kcat/Km as the turnover number divided by the Michaelis constant. For the molecule “AldB (Pseudomonas syringae pv. tomato str. DC3000)”, in data set [3], the Km is on record as 33.4 ± 9.2 µM, the kcat was 0.035 ± 0.00167 s⁻¹ and the kcat/Km amounted to 1040 M⁻¹ s⁻¹. Also, in data set [4], the Km turned out to be 595 ± 39 µM, the kcat worked out at 0.145 ± 0.00333 s⁻¹ and the catalytic efficiency (kcat/Km) turned out to be 244 M⁻¹ s⁻¹.

In data set [5], “Aldehyde dehydrogenase AldC (PSPTO_3644) (enzyme)” returned a stoichiometry N of 2.

As for “AldA (Pseudomonas syringae pv. tomato str. DC3000)”, the Km in data set [3] is reported as 42 ± 8 µM; in data set [6] it was 1,960 ± 182 µM; in data set [4], 119 ± 37 µM. Besides, the kcat was 3.23 ± 0.15 s⁻¹ in data set [3], 0.5 ± 0.0167 s⁻¹ in data set [6] and 3.9 ± 0.35 s⁻¹ in data set [4]. Besides, the results for the kcat/Km in data set [3], in data set [6] and in data set [4] were 77400 M⁻¹ s⁻¹, 252 M⁻¹ s⁻¹ and 32800 M⁻¹ s⁻¹, respectively.

As for “AldC (Pseudomonas syringae pv. tomato str. DC3000)”, in data set [3], the Km stood at 445 ± 99 µM, the kcat is 0.00667 ± 0.000167 s⁻¹ and the kcat/Km came to 14 M⁻¹ s⁻¹. In data set [4], the Km is on record as 1,280 ± 161 µM, the kcat turned out to be 0.06 ± 0.00333 s⁻¹ and the kcat/Km was determined as 46 M⁻¹ s⁻¹.

Turning to `NC(=O)c1ccc[n+]([C@@H]2O[C@H](COP(=O)(O)OP(=O)(O)OC[C@H]3O[C@@H](n4cnc5c(N)ncnc54)[C@H](O)[C@@H]3O)[C@@H](O)[C@H]2O)c1` [NAD^+], the “X-ray crystal structure of complex” value in data set [2] (5 mM NAD+, cofactor binding site, also in the ternary complex 5IUW) is “AldA (5IUU); AldA•NAD^+ (5IUV); and AldA•NAD^+•IAA (5IUW)”.

B1: Indole-3-acetaldehyde dehydrogenase AldA (PSPTO_0092) (enzyme)
chain: MTTLTRADWEQRAQNLKIEGRAFIQGEYTAAASGETFDCISPVDGRLLAKVASCDAADAQRAVESARSAFDSGAWSRLAPAKRKATMIRFAGLLEQNAEELALLETLDMGKPISDSLGVDIPGGARALSWSGEAIDKLYDEVAATPHDQLGLVTREPVGVVAAIVPWNFPLMMACWKLGPALSTGNSVVLKPSEKSPLTAIRIAQLAIEAGIPAGVLNVLPGYGHTVGKALALHMDVDTVVFTGSTKIAKQLMIYAGESNMKRVWLEAGGKSPNIVFADAPDLQAAADSAASAIAFNQGEVCTAGSRLLVERSIKDRFLPMVIEALGTWKPGNPLDPATNVGALVDTQQMNTVLSYIAAGHTDGARLVAGGKQILQETGGTYVEPTIFDGVNNAMRIAQEEIFGPVLSVLTFDTAEEAIQIANDTPYGLAAAVWTANLSKAHLTARALRAGSVWVNQYDGGDMTAPFGGFKQSGNGRDKSLHAFDKYTELKSTWIKL
notes: AldA (PSPTO_0092), aldehyde dehydrogenase of Pseudomonas syringae pv. tomato strain DC3000; estimated Mr 52.7 kDa without the tag; The full-length CDS is stated for the pET21a-0092 construct; pET28a-AldA was made with the same NdeI and XhoI sites; also called IAAld dehydrogenase; source: E. coli BL21 (DE3), pET28a-AldA, purified (Ni-NTA, Superdex-200 size exclusion); not shown: His6, N-terminal, …
As to B1, in data set [7], the “stoichiometry N” value amounted to 4.

The values above are taken from PMC5766252, “Indole-3-acetaldehyde dehydrogenase-dependent auxin synthesis contributes to virulence of Pseudomonas syringae strain DC3000” (PLoS Pathogens, 2018).
